According to patent US8273357B2, “Antigen-carbohydrate conjugates” (Massachusetts Institute of Technology, priority 2004, dated 2012):
“Also recorded” adds a separate entry of the source.

B1: (OVA)-3-1: ovalbumin modified via SMCC with nonasaccharide 3-1, average of three saccharides per OVA (conjugate)
chain: GSIGAASMEFCFDVFKELKVHHANENIFYCPIAIMSALAMVYLGAKDSTRTQINKVVRFDKLPGFGDSIEAQCGTSVNVHSSLRDILNQITKPNDVYSFSLASRLYAEERYPILPEYLQCVKELYRGGLEPINFQTAADQARELINSWVESQTNGIIRNVLQPSSVDSQTAMVLVNAIVFKGLWEKAFKDEDTQAMPFRVTEQESKPVQMMYQIGLFRVASMASEKMKILELPFASGTMSMLVLLPDEVSGLEQLESIINFEKLTEWTSSNVMEERKIKVYLPRMKMEEKYNLTSVLMAMGITDVFSSSANLSGISSAESLKISQAVHAAHAEINEAGREVVGSAEAGVDAASVSEEFRADHPFLFCIKHIATNAVLFFGRCVSP
B2: ovalbumin (protein, UniProt P01012 2-386, looked up)
Ovalbumin: B1 chain
notes: model antigen, unmodified

Experiments:
[1] = test system: OTII (CD4+) T cells in unfractionated splenocytes; experiment: Antigen presentation assay, unfractionated OTII splenocytes, [3H]thymidine T cell proliferation; type: cell-based, mouse
Experimental: FIG. 2B is a graph showing that oligosaccharide modification of OVA elicits stronger presentation to OTII T cells than unmodified OVA. Unfractionated OTII splenocytes (3×10^5/well) were incubated with graded doses of OVA or oligosaccharide-modified OVA for eighty-four hours with [^3H]thymidine (1 μCi) added for the last 12 hours. Thereafter [^3H]thymidine incorporation levels were measured and plotted. FIG. 2C is a graph showing that observed enhancements in antigen presentation of (OVA)-3-1 to T cells is carbohydrate dependent. Splenocytes were incubated with antigen as in (B)±(BSA)-3-1 (10 μg mL^−1). In cases where (OVA)-3-1 was added to OVA wells to assess the possibility of direct activation of T cells (see text), (OVA)-3-1 was present at 50 ng mL^−1; incubations were performed for seventy-two hours with [^3H]thymidine (1 μCi) added for the last 12 hours. FIG. 2D is a graph showing that the receptor mediated uptake of (OVA)-3-1 has a different binding profile than that observed for DC-SIGN. Unfractionated splenocytes were incubated with OVA or (OVA)-3-1±mBSA or Lewis^x-BSA (each at 100 μg mL^−1). Incubations were performed for seventy-two hours with [^3H]thymidine (1 μCi) added for the last twelve hours. All values reported are the mean of triplicate measurements.
The ability of these conjugates to enhance antigen uptake by dendritic cells was assessed in comparison to unmodified OVA by incubating graded doses of conjugate and OVA with unfractionated splenocytes (containing T cells, B cells, dendritic cells, macrophages) isolated from OTII (CD4^+) transgenic mice. The ability of dendritic cells to present antigenic peptides derived from targeted proteins was measured as a function of T cell proliferation in response to those presented peptides. T cell proliferation is quantified by [^3H]thymidine incorporation during cellular division.
Pooled inguinal lymph nodes were dissociated in 10% Fetal Bovine Serum RPMI (supplemented with 2 mM L-glutamine) and either mechanically dissociated between two glass slides or, to improve the overall cell yield, incubated in the presence of collagenase (Boehringer) and EDTA for 25 minutes at 37° C./5% CO2 to dissociate DC-T cell clusters. For antigen presentation assays with whole splenocytes, isolated spleens were injected with collagenase/EDTA, gently teased apart and incubated as described above. Splenocytes were cultured in 96-well round-bottom plates at a density of 3×10^5 cells/0.2 mL. In antigen presentation assays utilizing purified dendritic cells and T cells, dendritic cells were isolated from the spleens of C57BL/6 mice following collagenase/EDTA treatment by labeling the dendritic cells with commercially available magnetic microbeads linked to an anti-CD11c^+ antibody (Miltenyi Biotec, Bergisch Gladbach, Germany) (according to the Miltenyi Biotec protocol) and separating labeled Dendritic cells from non-dendritic cells by application of a magnetic field. Similarly, purified […] T cells were obtained from spleens of OTII transgenic mice using magnetic beads Dynal (Oslo, Norway). Purified dendritic cells and T cells were seeded onto 96-well plates round-bottom Plates at a 1:2 DC:T cell ratio unless stated otherwise in the Figures.

[2] = test system: OTI (CD8+) T cells in unfractionated splenocytes; experiment: Antigen presentation assay (MHC class I), unfractionated OTI splenocytes, [3H]thymidine T cell proliferation; type: cell-based, mouse
Experimental: FIGS. 3A and 3B are graphs showing that nonasaccharide 3-1-promoted presentation via MHC class I pathway for presentation to CD8^+ T cells. […] Unfractionated OTI splenocytes (3×10^5/well) were incubated with graded doses of OVA±(OVA)-3-1 (50 ng mL^−1) or (OVA)-3-1±(BSA)-3-1 (10 μg mL^−1). Incubations were performed for seventy-two hours with [^3H]thymidine (1 μCi) added for the last twelve hours. FIG. 3B is a graph showing that the monosaccharide mannose 3-6 targets a different receptor than 3-1. OTII splenocytes were incubated with graded doses of monosaccharide-modified OVA±(BSA)-3-1 and T cell proliferation was measured as described for FIG. 3A. Values present the mean of triplicate measurements.
Accessing the transporter of antigenic peptides (TAP) and thereby achieving cross-presentation of antigen by dendritic cells to MHC class I restricted CD8+ T cells led to efficient stimulation of these T cells and, in the steady state, their apoptotic deletion from the T cell repertoire^3. To determine if the receptor promoting (OVA)-3-1 uptake can process proteins through the MHC class I pathway, (OVA)-3-1 and OVA were incubated with unfractionated splenocytes isolated from OTI (CD8^+) mice. The T cells from transgenic OTI mice recognized an eight amino acid residue sequence (SIINFEKL (SEQ ID NO: 14)) derived from OVA and were therefore utilized to gauge the efficiency of DC presentation of MHC class I antigenic peptides. A moderate (10-fold) increase in the efficiency of MHC class I presentation with (OVA)-3-1 as compared to OVA alone was observed (FIG. 3A).
Pooled inguinal lymph nodes were dissociated in 10% Fetal Bovine Serum RPMI (supplemented with 2 mM L-glutamine) and either mechanically dissociated between two glass slides or, to improve the overall cell yield, incubated in the presence of collagenase (Boehringer) and EDTA for 25 minutes at 37° C./5% CO2 to dissociate DC-T cell clusters. For antigen presentation assays with whole splenocytes, isolated spleens were injected with collagenase/EDTA, gently teased apart and incubated as described above. […]

[3] = test system: IL-4; experiment: IL-4 ELISA during in vitro peptide restimulation of T cells from immunized mice; type: in vivo, mouse; details: 24 h; lower limit of detection approximately 0.3 ng mL^−1
Experimental: (§1) FIGS. 8A and 8B are a series of dot plots (FIG. 8A) and a graph (FIG. 8B) showing that the oligosaccharide-mediated targeting of steady state dendritic cells leads to T cell tolerance. […] 2×10^7 OTII splenocytes were adoptively transferred into B6.Ly5.2/Cr recipients and then immunized by subcutaneous injection with PBS, OVA (200 ng), (OVA)-3-1 (200 ng), (OVA)-3-1 (200 ng)+mBSA (50 μg) or OVA peptide (100 μg) in Incomplete Freund's Adjuvant. At 8 days after these initial immunizations, mice received an antigenic rechallenge of OVA peptide (100 μg) in Complete Freund's Adjuvant. On day ten mice were sacrificed and cells were isolated from the draining lymph node, total T cells were purified by negative selection and the number of OTII T cells were counted by FACS as described for FIG. 6. […] Purified T cells from each experimental group were seeded at 3×10^5 cells/well with purified […] dendritic cells (9×10^4/well) and were incubated for twenty-four hours±OVA peptide (100 μg mL^−1) with [^3H]thymidine (1 μCi) added for the last ten hours. […]
(§2) 75-150 μL aliquots of supernatant were sampled from antigen presentation assays at 24, 48, and 72 hours. […] 25 μL of each supernatant were diluted 1:1 with PBS/1% BSA and analyzed in triplicate for IFN-γ, IL-10, and IL-4 using DuoSet ELISA reagents from R&D Systems. […]

[4] = test system: IFN-γ; experiment: IFN-γ ELISA during in vitro peptide restimulation of T cells from immunized mice; type: in vivo, mouse; details: 24 h; lower limit of detection approximately 0.3 ng mL^−1
Experimental: as §1, §2

| Molecule | inhibition of uptake and presentation of (OVA)-3-1 to OTII T cells ([1]; OTII splenocytes, mBSA or Lewis^x-BSA each at 100 μg mL^−1) | direct activation of OTI T cells ([2]; (OVA)-3-1 50 ng mL^−1 added to OVA) | increase in the efficiency of MHC class I presentation as compared to OVA alone ([2]; OTI splenocytes) [fold] | presentation of antigenic peptides to CD8+ T cells ([2]; OTI splenocytes, graded doses) | IL-4 produced during peptide stimulation in vitro [3] | IFN-γ produced during peptide stimulation in vitro [4] | T cell response curve of OVA plus (OVA)-3-1 versus OVA alone (direct activation of T cells) ([1]; 0.05 μg mL^−1 (OVA)-3-1 added to graded doses of OVA) | enhancement of antigen uptake and presentation to T cells (T cell proliferation) compared to unmodified OVA ([1]; OTII splenocytes, graded doses) |
| --- | --- | --- | --- | --- | --- | --- | --- | --- |
| mBSA: BSA modified with approximately 25 mannose residues per protein molecule [reference compound] | Neither mBSA nor Lewis^x-BSA significantly impair; also recorded: did not significantly effect presentation | – | – | – | – | – | – | – |
| B1 | – | did not achieve this enhancement via direct activation of T cells | 10 | enhanced presentation | not detected | no detectable IFN-γ | identical | greatest enhancement |
| B2 | – | – | – | – | no IL-4 | produced IFN-γ | – | – |
